Bridge positions count the residues as written; N and C are the ends. Square brackets hold non-standard residues; d marks the D form. Ends that are not written are not given here. Trp(1-Me) = Cn1cc(C[C@H](N)C(=O)O)c2ccccc21; NMeI = CC[C@H](C)[C@H](NC)C(=O)O; Orn = NCCC[C@H](N)C(=O)O; Sar = CNCC(=O)O
Tests used:
[1] = molecular target: T1, C3 protein (target in the classical-pathway complement activation ELISA); experiment: cell-based or functional assay
[2] = molecular target: T1, C3 protein (target in the …); experiment: cell-based or functional assay; remark: listed apart in the source

Binder | IC50, peptide concentration to reach 50% inhibition of classical pathway complement activation (ELISA) [1] | IC50, peptide concentration to reach 50% inhibition of classical pathway complement activation [2]
Ac-ICV[Trp(1-Me)]QDWGAHRCT-NH2 (disulfide 2-12) [4(1MeW): Ac-Ile-[Cys-Val-Trp(Me)-Gln-Asp-Trp-Gly-Ala-His-Arg-Cys]-Thr-NH2] | 132 nM | –
[dY]ICV[Trp(1-Me)]QNW[Sar]AH[Orn]C[NMeI]-NH2 (disulfide 3-13) [Cp40 (11Orn 6Asn)] | – | 0.36 nM
Me-ICVWQDW[Sar]AHRC[NMeI]-NH2 (disulfide 2-12; not fully specified (residue 4); printed as Me-Ile-[Cys-Val-Trp(Me)-Gln-Asp-Trp-Sar-Ala-His-Arg-Cys]-mIle-NH2) [Peptide 1: Me-Ile-[Cys-Val-Trp(Me)-Gln-Asp-Trp-Sar-Ala-His-Arg-Cys]-mIle-NH2] | 180 nM | –
GICV[Trp(1-Me)]QDW[Sar]AHRC[NMeI]-NH2 (disulfide 3-13; N-terminus assumed; SMILES CC[C@H](C)[C@H](NC(=O)CN)C(=O)N[C@H]1CSSC[C@@H](C(=O)N(C)[C@H](C(N)=O)[C@@H](C)CC)NC(=O)[C@H](CCCNC(=N)N)NC(=O)[C@H](Cc2c[nH]cn2)NC(=O)[C@H](C)NC(=O)CN(C)C(=O)[C@H](Cc2c[nH]c3ccccc23)NC(=O)[C@H](CC(=O)O)NC(=O)[C@H](CCC(N)=O)NC(=O)[C@H](Cc2cn(C)c3ccccc23)NC(=O)[C@H](C(C)C)NC1=O) [Peptide 2: Gly-Ile-[Cys-Val-Trp(Me)-Gln-Asp-Trp-Sar-Ala-His-Arg-Cys]-mIle-NH2] | 113 nM | –
GICVWQDWGAHRCI (Sar (N-methyl-Gly) at Xaa0 (N-terminus); Trp(Me) at position 4; Sar at position 8; mIle at position 13; C-terminal -NH2; cyclic via Cys2-Cys12 disulfide (compstatin position numbering)) [Compstatin 30 (Cp30): Sar-Ile-[Cys-Val-Trp(Me)-Gln-Asp-Trp-Sar-Ala-His-Arg-Cys]-mIle-NH2] | 82 nM | –
YICV[Trp(1-Me)]QDW[Sar]AHRC[NMeI]-NH2 (disulfide 3-13) [Peptide 4: Tyr-Ile-[Cys-Val-Trp(Me)-Gln-Asp-Trp-Sar-Ala-His-Arg-Cys]-mIle-NH2] | 72 nM | –
[dY]ICV[Trp(1-Me)]QDW[Sar]AH[Orn]C[NMeI]-NH2 (disulfide 3-13) [Cp40 (11Orn)] | – | 0.22 nM
[dY]ICV[Trp(1-Me)]QNW[Sar]AHRC[NMeI]-NH2 (disulfide 3-13; N-terminus assumed; SMILES CC[C@H](C)[C@H](NC(=O)[C@H](N)Cc1ccc(O)cc1)C(=O)N[C@H]1CSSC[C@@H](C(=O)N(C)[C@H](C(N)=O)[C@@H](C)CC)NC(=O)[C@H](CCCNC(=N)N)NC(=O)[C@H](Cc2c[nH]cn2)NC(=O)[C@H](C)NC(=O)CN(C)C(=O)[C@H](Cc2c[nH]c3ccccc23)NC(=O)[C@H](CC(N)=O)NC(=O)[C@H](CCC(N)=O)NC(=O)[C@H](Cc2cn(C)c3ccccc23)NC(=O)[C@H](C(C)C)NC1=O) [Cp40 (6Asn)] | – | 0.26 nM
